Patent US20230295330A1 (Seagen, published 2023)

T1: human CD228 (R&D Systems Custom02; Lot DCWR021505A) (human, UniProt P08582 20-709, limits assumed)
T1 construct: Bought custom protein coated on ELISA plates; also called CD228 protein; melanotransferrin
T1 sequence (looked up): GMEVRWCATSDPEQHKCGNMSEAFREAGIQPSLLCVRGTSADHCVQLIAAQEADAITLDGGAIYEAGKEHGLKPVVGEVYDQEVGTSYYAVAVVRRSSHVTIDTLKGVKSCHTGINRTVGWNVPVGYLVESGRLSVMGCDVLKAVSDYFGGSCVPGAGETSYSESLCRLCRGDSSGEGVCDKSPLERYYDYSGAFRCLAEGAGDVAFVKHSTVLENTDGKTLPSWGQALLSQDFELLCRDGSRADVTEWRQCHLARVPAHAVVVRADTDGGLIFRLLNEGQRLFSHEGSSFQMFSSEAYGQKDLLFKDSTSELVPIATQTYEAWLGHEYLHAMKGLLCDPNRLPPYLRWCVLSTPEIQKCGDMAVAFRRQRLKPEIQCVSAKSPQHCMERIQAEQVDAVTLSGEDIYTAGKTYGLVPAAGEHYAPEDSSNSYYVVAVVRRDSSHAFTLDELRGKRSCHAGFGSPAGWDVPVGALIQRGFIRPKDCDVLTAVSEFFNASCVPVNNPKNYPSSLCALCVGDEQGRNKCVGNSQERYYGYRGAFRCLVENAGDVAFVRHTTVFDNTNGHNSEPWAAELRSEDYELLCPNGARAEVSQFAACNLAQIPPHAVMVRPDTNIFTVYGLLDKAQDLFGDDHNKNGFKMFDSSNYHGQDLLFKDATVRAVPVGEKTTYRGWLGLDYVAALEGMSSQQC

T2: CD228 on A375 and A2058 cells (human, UniProt P08582 20-709)
T2 construct: whole, on cells; GPI-anchored cell surface protein; also called CD228 on A375 cells; CD228 on A2058 cells
T2 sequence (looked up): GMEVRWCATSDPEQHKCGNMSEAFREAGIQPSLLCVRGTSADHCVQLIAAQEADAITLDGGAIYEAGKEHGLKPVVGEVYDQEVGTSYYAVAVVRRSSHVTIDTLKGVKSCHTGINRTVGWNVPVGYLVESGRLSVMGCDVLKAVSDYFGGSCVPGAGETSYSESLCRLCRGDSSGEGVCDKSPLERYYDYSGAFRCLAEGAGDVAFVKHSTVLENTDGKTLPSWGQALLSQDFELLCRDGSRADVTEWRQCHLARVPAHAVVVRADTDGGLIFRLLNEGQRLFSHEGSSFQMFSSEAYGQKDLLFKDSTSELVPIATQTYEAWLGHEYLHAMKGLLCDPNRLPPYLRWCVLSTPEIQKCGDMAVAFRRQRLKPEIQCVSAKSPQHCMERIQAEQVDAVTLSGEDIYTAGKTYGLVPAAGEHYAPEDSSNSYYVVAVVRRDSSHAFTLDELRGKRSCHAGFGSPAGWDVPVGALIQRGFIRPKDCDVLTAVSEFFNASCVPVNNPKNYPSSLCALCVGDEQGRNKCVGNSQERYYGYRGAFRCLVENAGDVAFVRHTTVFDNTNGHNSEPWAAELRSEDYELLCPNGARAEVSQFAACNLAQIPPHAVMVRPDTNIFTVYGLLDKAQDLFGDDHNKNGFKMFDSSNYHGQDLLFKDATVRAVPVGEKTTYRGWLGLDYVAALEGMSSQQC


What was measured:
[1] = target: T1, human CD228 (R&D Systems Custom02; Lot …); test: BLI (Octet Red 384), antibody as ligand, antigen as analyte
Procedure: The binding kinetics of hL49, hL49_34Ala, and hL49_Tyr were determined using BioLayer Interferometry (BLI) technology in an Octet Red 384 instrument using the antibodies as the ligands and the antigen as the analyte. […] In contrast, hL49_34Tyr has a slower on-rate but a similar off-rate compared to wild-type hL49, which may explain its reduced affinity on cells.

[2] = target: T1, human CD228 (R&D Systems Custom02; Lot …); test: ELISA, coated human CD228, pH 7.40
Procedure: (§1) Briefly, 100 ng of human CD228 (R&D Systems Custom02; Lot DCWR021505A) or BSA (Sigma; Catalog No. A7030-100G) were diluted in PBS and added to each well overnight at 4° C. Plates were then washed three times with PBS-T (EMD Millipore; Catalog No. 5246531EA). After washing, plates were blocked with 3% (w/v) BSA in PBS-T for 1 hour at room temperature. Excess blocking buffer was then removed and the primary antibody was added in 3-fold dilutions in diluent buffer (0.15M citrate-phosphate buffer pH 4.0-7.5) starting at an antibody concentration of 60 nM. After incubating for 1 hour at room temperature, the plates were washed 3 times and then incubated with secondary antibody (Goat anti-human IgG Fc-specific HRP-conjugated, Jackson ImmunoResearch code #109-035-098) in PBS-T with 1% BSA. After incubating for 30 minutes at room temperature, plates were washed 3 times. 100 μl TMB substrate (Life Technologies-, Cat #002023) was then added to each well. After incubating 10 minutes at room temperature, 100 μl H₂SO₄ was added to each well to stop the reaction, plates were covered with clear plate seal and read on an Envision at […]. pH-dependent binding for hL49 and nine variants with histidine substituted to alanine, glutamine, or tyrosine in the light chain CDRs are shown in FIG. 1A-1I. […] The triple mutants have lower affinity overall compared to hL49.

[3] = target: T1, human CD228 (R&D Systems Custom02; Lot …); test: ELISA on CD228 protein, neutral pH (rounded form of Table 2, pH 7.40)
[4] = target: T1, human CD228 (R&D Systems Custom02; Lot …); test: ELISA, coated human CD228, pH 6.30
Procedure: as §1

[5] = target: T2, CD228 on A375 and A2058 cells; test: flow cytometry saturation binding on A2058 cells (~40K receptors), neutral pH
Procedure: (§2) The ability of various anti-CD228 antibodies to bind to CD228 on A375 cells, A2058 cells, and CD228 protein was evaluated at neutral pH using a saturation binding assay. Briefly, 1×10⁵ A2058 or A375 cells that have either 40,000 or 18,000 copies of CD228 respectively, were aliquoted per well of a 96-well v-bottom plates. Each CD228 antibody was added in concentrations ranging from 0.66 pM to 690 nM and incubated on ice for 60 minutes. Cells were pelleted and washed 3× with PBS/BSA followed by addition of 10 μg/ml of a PE labeled anti-human IgG goat secondary antibody and incubated on ice for an additional 60 minutes. Cells were pelleted and washed 3× with PBS/BSA and resuspended in 125 μL of PBS/BSA. Fluorescence was analyzed by flow cytometry, using percent of saturated fluorescent signal to determine percent bound and to subsequently calculate apparent KID. […] The histidine 34 variants show large differences for substitutions with alanine, glutamine, and tyrosine.

[6] = target: T2, CD228 on A375 and A2058 cells; test: flow cytometry saturation binding on A375 cells (~18K receptors), neutral pH
Procedure: as §2

[7] = target: T1, human CD228 (R&D Systems Custom02; Lot …); test: ELISA, coated human CD228, pH 5.60
Procedure: as §1

[8] = target: T1, human CD228 (R&D Systems Custom02; Lot …); test: ELISA, coated human CD228, pH 4.55
Procedure: as §1

Kd [1] | kobs [1] | koff [1] | kon [1] | EC50 [2] | EC50 [3] | EC50 [4] | EC50 [5] | EC50 [6] | EC50 [7] | EC50 [8] | Binder
13.1 nM | 0.0853 s⁻¹ | 0.0011 s⁻¹ | 84200 M⁻¹ s⁻¹ | 1.76 nM | 1.8 nM | 136 nM | 0.6 nM | 1.1 nM | – | – | hL49 (antibody, V domains shown, Humanized antibody; Only variable domains are tied to it; also called hL49 HALC; hL49 WT) VH: QVQLQESGPGLVKPSETLSLTCTVSGDSITSGYWNWIRQPPGKGLEYIGYISDSGITYYNPSLKSRVTISRDTSKNQYSLKLSSVTAADTAVYYCARRTLATYYAMDYWGQGTLVTVSS VL: DFVMTQSPLSLPVTLGQPASISCRASQSLVHSDGNTYLHWYQQRPGQSPRLLIYRVSNRFSGVPDRFSGSGSGTDFTLKISRVEAEDVGVYYCSQSTHVPPTFGQGTKLEIK
– | – | – | – | 0.68 nM | 0.7 nM | 1.48 nM | 0.5 nM | 0.9 nM | 17.3 nM | 365 nM | hL49_27D_Gln (antibody, V domains shown, hL49 variant with the light chain CDR-L1 histidine 27D changed to glutamine) VH: QVQLQESGPGLVKPSETLSLTCTVSGDSITSGYWNWIRQPPGKGLEYIGYISDSGITYYNPSLKSRVTISRDTSKNQYSLKLSSVTAADTAVYYCARRTLATYYAMDYWGQGTLVTVSS VL: DFVMTQSPLSLPVTLGQPASISCRASQSLVQSDGNTYLHWYQQRPGQSPRLLIYRVSNRFSGVPDRFSGSGSGTDFTLKISRVEAEDVGVYYCSQSTHVPPTFGQGTKLEIK
– | – | – | – | 1.65 nM | 1.7 nM | 23.4 nM | 2.1 nM | 5.5 nM | 169 nM | – | hL49_34_Gln (antibody, V domains shown, hL49 variant with the light chain CDR-L1 histidine 34 changed to glutamine) VH: QVQLQESGPGLVKPSETLSLTCTVSGDSITSGYWNWIRQPPGKGLEYIGYISDSGITYYNPSLKSRVTISRDTSKNQYSLKLSSVTAADTAVYYCARRTLATYYAMDYWGQGTLVTVSS VL: DFVMTQSPLSLPVTLGQPASISCRASQSLVHSDGNTYLQWYQQRPGQSPRLLIYRVSNRFSGVPDRFSGSGSGTDFTLKISRVEAEDVGVYYCSQSTHVPPTFGQGTKLEIK
132 nM | 0.0113 s⁻¹ | 0.00132 s⁻¹ | 10000 M⁻¹ s⁻¹ | – | – | – | 11.2 nM | 79 nM | – | – | hL49_34_Tyr (antibody, V domains shown, hL49 variant with the light chain CDR-L1 histidine 34 changed to tyrosine; also called hL49_H34Y; hL49_Tyr) VH: QVQLQESGPGLVKPSETLSLTCTVSGDSITSGYWNWIRQPPGKGLEYIGYISDSGITYYNPSLKSRVTISRDTSKNQYSLKLSSVTAADTAVYYCARRTLATYYAMDYWGQGTLVTVSS VL: DFVMTQSPLSLPVTLGQPASISCRASQSLVHSDGNTYLYWYQQRPGQSPRLLIYRVSNRFSGVPDRFSGSGSGTDFTLKISRVEAEDVGVYYCSQSTHVPPTFGQGTKLEIK
– | – | – | – | 5.43 nM | 5.4 nM | 74.6 nM | 1.3 nM | 2.1 nM | – | – | hL49_3X_Tyr (antibody, V domains shown, hL49 triple mutant: all three light chain CDR histidines changed to tyrosine) VH: QVQLQESGPGLVKPSETLSLTCTVSGDSITSGYWNWIRQPPGKGLEYIGYISDSGITYYNPSLKSRVTISRDTSKNQYSLKLSSVTAADTAVYYCARRTLATYYAMDYWGQGTLVTVSS VL: DFVMTQSPLSLPVTLGQPASISCRASQSLVYSDGNTYLYWYQQRPGQSPRLLIYRVSNRFSGVPDRFSGSGSGTDFTLKISRVEAEDVGVYYCSQSTYVPPTFGQGTKLEIK
– | – | – | – | 4.46 nM | 4.5 nM | 73.8 nM | 0.9 nM | 1.4 nM | 405 nM | 108 nM | hL49_3X_Ala (antibody, V domains shown, hL49 triple mutant: all three light chain CDR histidines (two in CDR-L1, one in CDR-L3) changed to alanine) VH: QVQLQESGPGLVKPSETLSLTCTVSGDSITSGYWNWIRQPPGKGLEYIGYISDSGITYYNPSLKSRVTISRDTSKNQYSLKLSSVTAADTAVYYCARRTLATYYAMDYWGQGTLVTVSS VL: DFVMTQSPLSLPVTLGQPASISCRASQSLVASDGNTYLAWYQQRPGQSPRLLIYRVSNRFSGVPDRFSGSGSGTDFTLKISRVEAEDVGVYYCSQSTAVPPTFGQGTKLEIK
– | – | – | – | 0.55 nM | 0.6 nM | 0.99 nM | 0.6 nM | 1.1 nM | 9.14 nM | 460 nM | hL49_27D_Ala (antibody, V domains shown, hL49 variant with the light chain CDR-L1 histidine 27D changed to alanine) VH: QVQLQESGPGLVKPSETLSLTCTVSGDSITSGYWNWIRQPPGKGLEYIGYISDSGITYYNPSLKSRVTISRDTSKNQYSLKLSSVTAADTAVYYCARRTLATYYAMDYWGQGTLVTVSS VL: DFVMTQSPLSLPVTLGQPASISCRASQSLVASDGNTYLHWYQQRPGQSPRLLIYRVSNRFSGVPDRFSGSGSGTDFTLKISRVEAEDVGVYYCSQSTHVPPTFGQGTKLEIK
– | – | – | – | 14.6 nM | 14.6 nM | 52.6 nM | 1.3 nM | 2.1 nM | – | – | hL49_3X_Gln (antibody, V domains shown, hL49 triple mutant: all three light chain CDR histidines changed to glutamine; also called 3X-Gin) VH: QVQLQESGPGLVKPSETLSLTCTVSGDSITSGYWNWIRQPPGKGLEYIGYISDSGITYYNPSLKSRVTISRDTSKNQYSLKLSSVTAADTAVYYCARRTLATYYAMDYWGQGTLVTVSS VL: DFVMTQSPLSLPVTLGQPASISCRASQSLVQSDGNTYLQWYQQRPGQSPRLLIYRVSNRFSGVPDRFSGSGSGTDFTLKISRVEAEDVGVYYCSQSTQVPPTFGQGTKLEIK
15.8 nM | 0.282 s⁻¹ | 0.00438 s⁻¹ | 277000 M⁻¹ s⁻¹ | 1.2 nM | 1.2 nM | 16.5 nM | 1.3 nM | 1.6 nM | 271 nM | – | hL49_34_Ala (antibody, V domains shown, hL49 variant with the light chain CDR-L1 histidine 34 changed to alanine; also called hL49_H34A) VH: QVQLQESGPGLVKPSETLSLTCTVSGDSITSGYWNWIRQPPGKGLEYIGYISDSGITYYNPSLKSRVTISRDTSKNQYSLKLSSVTAADTAVYYCARRTLATYYAMDYWGQGTLVTVSS VL: DFVMTQSPLSLPVTLGQPASISCRASQSLVHSDGNTYLAWYQQRPGQSPRLLIYRVSNRFSGVPDRFSGSGSGTDFTLKISRVEAEDVGVYYCSQSTHVPPTFGQGTKLEIK
